According to US20040014151A1 (published 2004):

Target: the molecule itself
Test: SEC-HPLC of IMAC-purified protein from cpcE or cpcF mutant
Description: Size Exclusion Chromatography-High Performance Liquid Chromatography—Although IMAC-purified and dialyzed samples (see above) could be used with no obvious effect on the results, proteins to be analyzed by SEC-HPLC were generally dialyzed again in 50 mM Na—PO₄ pH 7.0, 50 mM NaCl, 0.5 mM DTT. […] A mobile phase of 50 mM Na—PO₄ pH 7.0 was flowed at 0.8 ml min⁻¹ through Bio-Sil 250 (Bio-Rad Laboratories, Hercules, Calif.) guard column (80×7.8 mm) and column (300×7.8 mm) maintained at 25° C. For analytical separations, 50 to 200 μg of phycocyanin was loaded [based on absorbance at the peak near 621 nm and using a molar extinction coefficient of 290,000 M⁻¹ cm⁻¹ per monomer (29)]. Molecular size calibration utilized bovine gamma globulin, 158 kDa; chicken ovalbumin, 44 kDa; horse myoglobin, 17 kDa; vitamin B12, 1.35 kDa (Bio-Rad gel filtration standards). The void volume was determined with blue dextran, 2000 kDa (Pharmacia Biotech, Piscataway, N.J.). Preparative separations were performed with loads of 0.5 to 1 mg phycocyanin.

B1: His-tagged C-phycocyanin β subunit, holo-HTβ (other, Anabaena sp. PCC7120, UniProt P07120 1-173, looked up)
chain: MTLDVFTKVVSQADSRGEFLSNEQLDALANVVKEGNKRLDVVNRITSNASAIVTNAARALFEEQPQLIAPGGNAYTNRRMAACLRDMEIILRYVTYAILAGDASVLDDRCLNGLRETYQALGTPGSSVAVGVQKMKDAAVGIANDPNGITKGDCSQLISEVASYFDRAAAAVG
modifications: two phycocyanobilins (PCB); methylated Asn72
notes: Encoded by pBS262, expressed in Anabaena sp; also called An262; not shown: 24-residue N-terminal extension with 6xHis tag and TEV protease site
binding result: binds
